Test results taken from patent publication US20120039802A1 (published 2012).

target: T1, cMet-Fc fusion protein (extracellular domain of the cMet receptor expressed as an Fc-fusion protein) (human, UniProt P08581 25-932); test: phage ELISA on cMet-Fc, competitor HGF 100 ng/mL
T1 construct: extracellular domain; also called soluble cMet-Fc-fusion protein; soluble cMet receptor; not shown: Fc part
Description: (§1) These assays were conducted using the peptide-displaying phage discovered from the initial selection and screening campaigns using the first generation peptide libraries. Briefly, 96-well plates were coated overnight at 4 C with 0.5 μg/mL of cMet-Fc fusion protein or TRAIL-Fc fusion protein (background). The plates were blocked for 2 hours at 37 C with 3% BSA in PBST. […] This was followed by an addition of 30 μL of peptide-displaying phage overnight culture to each well. The plates were incubated for 2 hours at room temperature, washed with PBST and cMet-binding peptide-displaying phage was detected using an HRP-conjugated anti-M13 antibody.

T1 sequence (P08581 25-932): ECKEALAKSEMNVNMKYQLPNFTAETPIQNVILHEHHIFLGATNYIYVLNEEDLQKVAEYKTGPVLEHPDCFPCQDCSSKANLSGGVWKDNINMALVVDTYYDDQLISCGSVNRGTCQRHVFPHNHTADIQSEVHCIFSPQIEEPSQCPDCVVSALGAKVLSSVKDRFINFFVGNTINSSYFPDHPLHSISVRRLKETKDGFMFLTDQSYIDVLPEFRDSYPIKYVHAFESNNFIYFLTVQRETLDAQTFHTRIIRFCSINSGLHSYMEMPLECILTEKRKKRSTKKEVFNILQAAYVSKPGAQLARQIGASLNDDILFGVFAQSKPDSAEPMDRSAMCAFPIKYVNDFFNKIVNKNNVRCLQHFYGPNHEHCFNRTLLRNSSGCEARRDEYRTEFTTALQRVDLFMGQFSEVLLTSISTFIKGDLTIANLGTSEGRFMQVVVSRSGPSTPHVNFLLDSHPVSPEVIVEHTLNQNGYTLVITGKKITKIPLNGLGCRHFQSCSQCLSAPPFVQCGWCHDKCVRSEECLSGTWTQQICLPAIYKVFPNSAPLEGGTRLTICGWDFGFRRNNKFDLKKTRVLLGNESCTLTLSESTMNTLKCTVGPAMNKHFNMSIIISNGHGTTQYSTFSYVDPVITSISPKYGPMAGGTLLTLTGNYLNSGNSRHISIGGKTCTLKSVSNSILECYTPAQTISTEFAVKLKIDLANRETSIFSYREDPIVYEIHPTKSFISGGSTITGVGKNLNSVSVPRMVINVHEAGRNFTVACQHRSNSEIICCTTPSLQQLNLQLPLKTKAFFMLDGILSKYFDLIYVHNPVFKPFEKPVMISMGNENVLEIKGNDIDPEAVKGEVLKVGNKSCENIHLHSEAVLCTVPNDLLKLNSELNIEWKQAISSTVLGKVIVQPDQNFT

Binder | % of binding in the absence of HGF
GSFFPCWRIDRFGYCHANAP [551-H10 peptide-displaying phage (SEQ ID NO: 370)] | 88%
AGDFICQGPPSFVCTNIGT [550-A08 peptide-displaying phage (SEQ ID NO: 097)] | 52%
AGSSPCKGWPTFECYFYGT [552-F01 peptide-displaying phage (SEQ ID NO: 087)] | 56%
AGSIACTGWPYFSCIDLGT [547-H12 peptide-displaying phage (SEQ ID NO: 088)] | 92%
GSILYCINRNDPQCPYTAP [465-C10 peptide-displaying phage (SEQ ID NO: 101)] | 95%
AGYWSCAGPPMFMCTWQGT [552-G03 peptide-displaying phage (SEQ ID NO: 079)] | 101%
AGWSDCLGPPQFTCVHWGT [552-A01 peptide-displaying phage (SEQ ID NO: 083)] | 76%
AGTMYCLGPPTFICQQYGT [548-C06 peptide-displaying phage (SEQ ID NO: 084)] | 94%
GSLIICWWSWCDKQAP [567-C08 peptide-displaying phage (SEQ ID NO: 009)] | 85%
GSEFECTGWPEFRCYEYAP [548-C10 peptide-displaying phage (SEQ ID NO: 100)] | 69%
GSTKVCHEKWNQLFCHNQAP [549-G01 peptide-displaying phage (SEQ ID NO: 368)] | 62%
GSFAPCGWPSFAIDCIAEAP [545-C11 peptide-displaying phage (SEQ ID NO: 367)] | 77%
AGNWICTGPPSFGCWYHGT [331-G06 peptide-displaying phage (SEQ ID NO: 078)] | 59%
AGWGWCSGPPMFMCTEYGT [551-A05 peptide-displaying phage (SEQ ID NO: 099)] | 68%
AGMTLCAGPPTFECYEVGT [552-F02 peptide-displaying phage (SEQ ID NO: 092)] | 60%

target: T1, cMet-Fc fusion protein (extracellular …); test: phage ELISA, cMet-Fc vs TRAIL-Fc
Description: Protein phage ELISAs using peptide-displaying phage isolates from the various selection campaigns were performed to determine specificity of the peptides for cMet versus an unrelated Fc-fusion protein (TRAIL-Fe). Briefly, 384-well plates were coated overnight at 4 C with 0.5 μg/mL of cMet-Fc fusion protein or TRAIL-Fc fusion protein (background). The plates were blocked for 2 hours 37 C with 3% (w/v) BSA in PBS containing 0.05% (v/v) Tween-20 (PBST). The plates were washed with PBST and 100 μL of peptide-displaying phage were added to each well. The plates were incubated for 2 hours at room temperature and washed with PBST. cMet-binding peptide-displaying phage were detected using an HRP-conjugated anti-M13 antibody.

Binder | Protein ELISA (fold over background)
GSFFPCWRIDRFGYCHANAP [551-H10 peptide-displaying phage (SEQ ID NO: 370)] | 13.3 fold
AGDFICQGPPSFVCTNIGT [550-A08 peptide-displaying phage (SEQ ID NO: 097)] | 8.4 fold
AGSSPCKGWPTFECYFYGT [552-F01 peptide-displaying phage (SEQ ID NO: 087)] | 4.8 fold
AGSIACTGWPYFSCIDLGT [547-H12 peptide-displaying phage (SEQ ID NO: 088)] | 5.6 fold
GSILYCINRNDPQCPYTAP [465-C10 peptide-displaying phage (SEQ ID NO: 101)] | 3 fold
AGYWSCAGPPMFMCTWQGT [552-G03 peptide-displaying phage (SEQ ID NO: 079)] | 10.7 fold
AGWSDCLGPPQFTCVHWGT [552-A01 peptide-displaying phage (SEQ ID NO: 083)] | 3.9 fold
AGTMYCLGPPTFICQQYGT [548-C06 peptide-displaying phage (SEQ ID NO: 084)] | 13 fold
GSLIICWWSWCDKQAP [567-C08 peptide-displaying phage (SEQ ID NO: 009)] | 3.8 fold
GSEFECTGWPEFRCYEYAP [548-C10 peptide-displaying phage (SEQ ID NO: 100)] | 8.4 fold
GSTKVCHEKWNQLFCHNQAP [549-G01 peptide-displaying phage (SEQ ID NO: 368)] | 7 fold
GSFAPCGWPSFAIDCIAEAP [545-C11 peptide-displaying phage (SEQ ID NO: 367)] | 7.7 fold
AGNWICTGPPSFGCWYHGT [331-G06 peptide-displaying phage (SEQ ID NO: 078)] | 4.7 fold
AGWGWCSGPPMFMCTEYGT [551-A05 peptide-displaying phage (SEQ ID NO: 099)] | 4 fold
AGMTLCAGPPTFECYEVGT [552-F02 peptide-displaying phage (SEQ ID NO: 092)] | 12.3 fold

target: T2, human cMet expressed on 3T3 cells (human, UniProt P08581 25-1390); test: whole cell phage ELISA, 3T3 human cMet vs 3T3
T2 construct: whole, on cells; cells fixed with glutaraldehyde; also called cell surface-expressed human cMet; 3T3 cells that over-express human cMet
Description: Whole cell ELISAs were performed using 3T3 cells that over-express human cMet. […] Briefly, 96-well plates were seeded with 10⁵ cells per well. The plates were centrifuged for 5 minutes at 1600 rpm to pellet the cells. The resulting cell layer was fixed with 0.1% (v/v) glutaraldehyde for 12 minutes at 37 C. […] Peptide-displaying phage also were blocked in the above solution for 1 hour at 37 C. 100 μL of blocked phage was then added to each well and the plates were incubated for 1 hour at room temperature. The plates were washed with PBST. cMet-binding peptide-displaying phage were detected using an HRP-conjugated anti-M13 antibody.

T2 sequence (P08581 25-1390): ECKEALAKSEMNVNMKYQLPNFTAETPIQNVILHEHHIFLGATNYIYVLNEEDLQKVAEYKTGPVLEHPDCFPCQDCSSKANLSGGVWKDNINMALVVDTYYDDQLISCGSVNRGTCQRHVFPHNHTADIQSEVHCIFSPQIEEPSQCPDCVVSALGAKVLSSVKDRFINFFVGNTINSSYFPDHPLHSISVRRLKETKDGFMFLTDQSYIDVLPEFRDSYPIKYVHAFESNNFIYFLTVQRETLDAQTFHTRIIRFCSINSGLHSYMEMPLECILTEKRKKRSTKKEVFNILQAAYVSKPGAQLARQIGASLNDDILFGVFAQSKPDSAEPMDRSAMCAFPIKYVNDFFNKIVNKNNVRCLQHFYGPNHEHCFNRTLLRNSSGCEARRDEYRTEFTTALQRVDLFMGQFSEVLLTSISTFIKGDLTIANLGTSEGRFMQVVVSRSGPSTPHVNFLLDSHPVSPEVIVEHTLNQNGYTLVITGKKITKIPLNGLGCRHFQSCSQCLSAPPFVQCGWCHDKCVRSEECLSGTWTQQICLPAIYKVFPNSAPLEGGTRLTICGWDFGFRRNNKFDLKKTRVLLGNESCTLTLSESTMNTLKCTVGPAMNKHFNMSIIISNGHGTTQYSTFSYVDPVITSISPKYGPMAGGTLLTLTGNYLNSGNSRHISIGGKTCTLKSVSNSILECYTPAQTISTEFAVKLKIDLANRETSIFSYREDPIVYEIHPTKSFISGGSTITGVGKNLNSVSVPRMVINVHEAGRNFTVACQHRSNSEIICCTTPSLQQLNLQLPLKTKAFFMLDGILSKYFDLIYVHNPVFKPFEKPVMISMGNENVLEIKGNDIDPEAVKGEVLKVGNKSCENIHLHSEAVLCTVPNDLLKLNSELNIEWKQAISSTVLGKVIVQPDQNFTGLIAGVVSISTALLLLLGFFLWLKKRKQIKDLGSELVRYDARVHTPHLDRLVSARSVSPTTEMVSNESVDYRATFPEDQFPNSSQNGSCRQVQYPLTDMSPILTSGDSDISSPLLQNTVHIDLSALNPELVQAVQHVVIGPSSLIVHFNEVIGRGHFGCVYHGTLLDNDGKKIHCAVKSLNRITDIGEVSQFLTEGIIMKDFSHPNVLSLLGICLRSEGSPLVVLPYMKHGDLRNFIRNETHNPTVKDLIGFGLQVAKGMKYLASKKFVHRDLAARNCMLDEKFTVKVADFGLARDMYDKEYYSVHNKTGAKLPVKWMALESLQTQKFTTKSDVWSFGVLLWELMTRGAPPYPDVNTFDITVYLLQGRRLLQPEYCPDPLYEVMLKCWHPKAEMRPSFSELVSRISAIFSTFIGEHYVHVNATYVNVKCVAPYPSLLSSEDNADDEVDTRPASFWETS

Binder | WC ELISA (fold over background)
GSFFPCWRIDRFGYCHANAP [551-H10 peptide-displaying phage (SEQ ID NO: 370)] | 1.87 fold
AGDFICQGPPSFVCTNIGT [550-A08 peptide-displaying phage (SEQ ID NO: 097)] | 1.27 fold
AGSSPCKGWPTFECYFYGT [552-F01 peptide-displaying phage (SEQ ID NO: 087)] | 1.3 fold
AGSIACTGWPYFSCIDLGT [547-H12 peptide-displaying phage (SEQ ID NO: 088)] | 1.1 fold
GSILYCINRNDPQCPYTAP [465-C10 peptide-displaying phage (SEQ ID NO: 101)] | 1.27 fold
AGYWSCAGPPMFMCTWQGT [552-G03 peptide-displaying phage (SEQ ID NO: 079)] | 1.27 fold
AGWSDCLGPPQFTCVHWGT [552-A01 peptide-displaying phage (SEQ ID NO: 083)] | 1.33 fold
AGTMYCLGPPTFICQQYGT [548-C06 peptide-displaying phage (SEQ ID NO: 084)] | 1.23 fold
GSLIICWWSWCDKQAP [567-C08 peptide-displaying phage (SEQ ID NO: 009)] | 1.27 fold
GSEFECTGWPEFRCYEYAP [548-C10 peptide-displaying phage (SEQ ID NO: 100)] | 1.2 fold
GSTKVCHEKWNQLFCHNQAP [549-G01 peptide-displaying phage (SEQ ID NO: 368)] | 1.27 fold
GSFAPCGWPSFAIDCIAEAP [545-C11 peptide-displaying phage (SEQ ID NO: 367)] | 1.3 fold
AGNWICTGPPSFGCWYHGT [331-G06 peptide-displaying phage (SEQ ID NO: 078)] | 1.4 fold
AGWGWCSGPPMFMCTEYGT [551-A05 peptide-displaying phage (SEQ ID NO: 099)] | 1.3 fold
AGMTLCAGPPTFECYEVGT [552-F02 peptide-displaying phage (SEQ ID NO: 092)] | 1.23 fold

target: T1, cMet-Fc fusion protein (extracellular …); test: phage ELISA on cMet-Fc, competitor HGF 500 ng/mL
Description: as §1

Binder | % of binding in the absence of HGF
GSFFPCWRIDRFGYCHANAP [551-H10 peptide-displaying phage (SEQ ID NO: 370)] | 49%
AGDFICQGPPSFVCTNIGT [550-A08 peptide-displaying phage (SEQ ID NO: 097)] | 51%
AGSSPCKGWPTFECYFYGT [552-F01 peptide-displaying phage (SEQ ID NO: 087)] | 37%
AGSIACTGWPYFSCIDLGT [547-H12 peptide-displaying phage (SEQ ID NO: 088)] | 81%
GSILYCINRNDPQCPYTAP [465-C10 peptide-displaying phage (SEQ ID NO: 101)] | 71%
AGYWSCAGPPMFMCTWQGT [552-G03 peptide-displaying phage (SEQ ID NO: 079)] | 83%
AGWSDCLGPPQFTCVHWGT [552-A01 peptide-displaying phage (SEQ ID NO: 083)] | 81%
AGTMYCLGPPTFICQQYGT [548-C06 peptide-displaying phage (SEQ ID NO: 084)] | 77%
GSLIICWWSWCDKQAP [567-C08 peptide-displaying phage (SEQ ID NO: 009)] | 94%
GSEFECTGWPEFRCYEYAP [548-C10 peptide-displaying phage (SEQ ID NO: 100)] | 57%
GSTKVCHEKWNQLFCHNQAP [549-G01 peptide-displaying phage (SEQ ID NO: 368)] | 18%
GSFAPCGWPSFAIDCIAEAP [545-C11 peptide-displaying phage (SEQ ID NO: 367)] | 50%
AGNWICTGPPSFGCWYHGT [331-G06 peptide-displaying phage (SEQ ID NO: 078)] | 51%
AGWGWCSGPPMFMCTEYGT [551-A05 peptide-displaying phage (SEQ ID NO: 099)] | 42%
AGMTLCAGPPTFECYEVGT [552-F02 peptide-displaying phage (SEQ ID NO: 092)] | 40%
